{"source": "paper PMC3439536", "biological_target": "Human CR2 SCR1-4-BCCP, site-specifically biotinylated (human) (UniProt P20023)", "sequence (P20023 21-273)": "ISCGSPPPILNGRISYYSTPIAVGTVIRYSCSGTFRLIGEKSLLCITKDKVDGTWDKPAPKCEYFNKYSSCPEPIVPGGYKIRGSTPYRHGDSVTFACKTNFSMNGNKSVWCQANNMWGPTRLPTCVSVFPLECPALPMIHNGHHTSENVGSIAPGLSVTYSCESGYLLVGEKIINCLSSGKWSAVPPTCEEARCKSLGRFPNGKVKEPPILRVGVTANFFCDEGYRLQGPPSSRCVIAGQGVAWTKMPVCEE", "assay": "SPR"}
{"substance": "70 kDa fragment of the Epstein-Barr virus gp350/220 coat protein (from UniProt P03200-1 1-907) (domain or fragment)", "values": [{"measurement": "KD1 (higher affinity site, two-site model)", "result": 0.417, "unit": "µM"}]}
